Measured values as given in PMC7327923.

Key:
[1] = biological target: Dps protein from Thermoleptolyngbya sp. O-77 (TlDps1) (Thermoleptolyngbya sp. O-77); experiment: crystal structure; hanging drop, 293 K, TlDps1 4.0 mg/mL in 10 mM Tris/HCl pH 8.0 with 0.15 M cesium chloride and 18% PEG 3350; 2.9 Å; six subunits in the asymmetric unit
[2] = biological target: Dps protein from Thermoleptolyngbya sp. O-77 (TlDps1) (Thermoleptolyngbya sp. O-77); experiment: SDS/PAGE; 5-20% gel; sample buffer with 2% SDS and 14.4 mM 2-mercaptoethanol; incubated 10 min at 298, 323 or 348 K before loading
[3] = biological target: Dps protein from Thermoleptolyngbya sp. O-77 (TlDps1) (Thermoleptolyngbya sp. O-77); experiment: native gel or EMSA; native PAGE, 5-20% gel; TlDps1 in 10 mM Tris/HCl pH 8.0, also after DNase I treatment
[4] = biological target: Dps protein from Thermoleptolyngbya sp. O-77 (TlDps1) (Thermoleptolyngbya sp. O-77); experiment: SEC-RALS; TlDps1 as isolated, 206 µg/mL; Superdex 200 Increase, 303 K, 10 mM Tris/HCl pH 8.0, 0.5 mL/min

Measured: stoichiometry N

Dps protein from Thermoleptolyngbya sp. O-77 (TlDps1) (natural protein)
12: all assays above
